One block for each binder: values may come before it.
Legend:
Assay in all cases: flow cytometry, IgG on cells expressing the mutant
[1] = target: human CD33 variant M120I (human, UniProt P20138 18-364)
[2] = target: human CD33 variant K52Y (human, UniProt P20138 18-364)
[3] = target: human CD33 variant P48I (human, UniProt P20138 18-364)
[4] = target: human CD33 variant Y49I (human, UniProt P20138 18-364)
[5] = target: human CD33 variant M120L (human, UniProt P20138 18-364)
[6] = target: human CD33 variant Y50H (human, UniProt P20138 18-364)
[7] = target: human CD33 variant I47F (human, UniProt P20138 18-364)
[8] = target: human CD33 variant K52F (human, UniProt P20138 18-364)
[9] = target: human CD33 variant Y50R (human, UniProt P20138 18-364)
[10] = target: human CD33 variant Y50I (human, UniProt P20138 18-364)
[11] = target: human CD33 variant Y49T (human, UniProt P20138 18-364)
[12] = target: human CD33 variant P48H (human, UniProt P20138 18-364)
[13] = target: human CD33 variant K52T (human, UniProt P20138 18-364)
[14] = target: human CD33 variant I47Q (human, UniProt P20138 18-364)
[15] = target: human CD33 variant Y50L (human, UniProt P20138 18-364)
[16] = target: human CD33 variant Y49Q (human, UniProt P20138 18-364)
[17] = target: human CD33 variant P48D (human, UniProt P20138 18-364)
[18] = target: human CD33 variant I47P (human, UniProt P20138 18-364)
[19] = target: human CD33 variant K52D (human, UniProt P20138 18-364)
[20] = target: human CD33 variant Y129S (human, UniProt P20138 18-364)
[21] = target: human CD33 variant S131G (human, UniProt P20138 18-364)
[22] = target: human CD33 variant P48Y (human, UniProt P20138 18-364)
[23] = target: human CD33 variant K52E (human, UniProt P20138 18-364)
[24] = target: human CD33 variant P48N (human, UniProt P20138 18-364)
[25] = target: human CD33 variant P48K (human, UniProt P20138 18-364)
[26] = target: human CD33 variant K52L (human, UniProt P20138 18-364)
[27] = target: human CD33 variant D51Y (human, UniProt P20138 18-364)
[28] = target: human CD33 variant Y50S (human, UniProt P20138 18-364)
[29] = target: human CD33 variant P48W (human, UniProt P20138 18-364)
[30] = target: human CD33 variant Y50P (human, UniProt P20138 18-364)
[31] = target: human CD33 variant I47Y (human, UniProt P20138 18-364)
[32] = target: human CD33 variant K52H (human, UniProt P20138 18-364)
[33] = target: human CD33 variant P48Q (human, UniProt P20138 18-364)
[34] = target: human CD33 variant I47L (human, UniProt P20138 18-364)
[35] = target: human CD33 variant K52G (human, UniProt P20138 18-364)
[36] = target: human CD33 variant Y49S (human, UniProt P20138 18-364)

Chain of human CD33 variant M120L (P20138 18-364 M120L limits assumed): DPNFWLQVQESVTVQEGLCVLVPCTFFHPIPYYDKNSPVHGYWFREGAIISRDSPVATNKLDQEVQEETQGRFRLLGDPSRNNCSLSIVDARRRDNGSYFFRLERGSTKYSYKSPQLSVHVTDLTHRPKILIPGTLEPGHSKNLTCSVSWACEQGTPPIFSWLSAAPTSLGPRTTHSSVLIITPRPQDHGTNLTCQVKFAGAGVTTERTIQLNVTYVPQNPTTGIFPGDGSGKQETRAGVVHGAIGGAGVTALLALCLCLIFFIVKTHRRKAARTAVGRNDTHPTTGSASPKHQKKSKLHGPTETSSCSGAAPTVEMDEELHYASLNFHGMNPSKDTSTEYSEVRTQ
Chain of human CD33 variant P48Q (P20138 18-364 P48Q limits assumed): as the sequence (P20138 18-364 M120L limits assumed) above, with P31Q, L103M counted along it
Chain of human CD33 variant Y50L (P20138 18-364 Y50L limits assumed): as the sequence (P20138 18-364 M120L limits assumed) above, with Y33L, L103M counted along it
Chain of human CD33 variant Y50S (P20138 18-364 Y50S limits assumed): as the sequence (P20138 18-364 M120L limits assumed) above, with Y33S, L103M counted along it
Chain of human CD33 variant I47P (P20138 18-364 I47P limits assumed): as the sequence (P20138 18-364 M120L limits assumed) above, with I30P, L103M counted along it
Chain of human CD33 variant K52D (P20138 18-364 K52D limits assumed): as the sequence (P20138 18-364 M120L limits assumed) above, with K35D, L103M counted along it
Chain of human CD33 variant P48I (P20138 18-364 P48I limits assumed): as the sequence (P20138 18-364 M120L limits assumed) above, with P31I, L103M counted along it
Chain of human CD33 variant K52F (P20138 18-364 K52F limits assumed): as the sequence (P20138 18-364 M120L limits assumed) above, with K35F, L103M counted along it
Chain of human CD33 variant I47Y (P20138 18-364 I47Y limits assumed): as the sequence (P20138 18-364 M120L limits assumed) above, with I30Y, L103M counted along it
Chain of human CD33 variant P48H (P20138 18-364 P48H limits assumed): as the sequence (P20138 18-364 M120L limits assumed) above, with P31H, L103M counted along it
Chain of human CD33 variant Y50P (P20138 18-364 Y50P limits assumed): as the sequence (P20138 18-364 M120L limits assumed) above, with Y33P, L103M counted along it
Chain of human CD33 variant M120I (P20138 18-364 M120I limits assumed): as the sequence (P20138 18-364 M120L limits assumed) above, with L103I counted along it
Chain of human CD33 variant K52T (P20138 18-364 K52T limits assumed): as the sequence (P20138 18-364 M120L limits assumed) above, with K35T, L103M counted along it
Chain of human CD33 variant P48W (P20138 18-364 P48W limits assumed): as the sequence (P20138 18-364 M120L limits assumed) above, with P31W, L103M counted along it

Mean % WT Binding [1]: 101 % of WT
Mean % WT Binding [2]: 20.7 % of WT
Mean % WT Binding [3]: 31.9 % of WT
Mean % WT Binding [4]: 94 % of WT
Mean % WT Binding [5]: 110 % of WT
Mean % WT Binding [6]: 2 % of WT
Mean % WT Binding [7]: 102 % of WT
Mean % WT Binding [8]: 3.5 % of WT
Mean % WT Binding [9]: 0.3 % of WT
Mean % WT Binding [10]: 4.5 % of WT
Mean % WT Binding [11]: 2.8 % of WT
Mean % WT Binding [12]: 2.9 % of WT
Mean % WT Binding [13]: 83.5 % of WT
Mean % WT Binding [14]: 80.1 % of WT
Mean % WT Binding [15]: 1.9 % of WT
Mean % WT Binding [16]: 91.9 % of WT
Mean % WT Binding [17]: 2 % of WT
Mean % WT Binding [18]: 49 % of WT
Mean % WT Binding [19]: 9.4 % of WT
Mean % WT Binding [20]: 107 % of WT
Mean % WT Binding [21]: 96.9 % of WT
Mean % WT Binding [22]: 0.6 % of WT
Mean % WT Binding [23]: 51.4 % of WT
Mean % WT Binding [24]: 3.8 % of WT
Mean % WT Binding [25]: 0 % of WT
Mean % WT Binding [26]: 88.1 % of WT
Mean % WT Binding [27]: 61.9 % of WT
Mean % WT Binding [28]: 2.9 % of WT
Mean % WT Binding [29]: 1.3 % of WT
Mean % WT Binding [30]: 85.6 % of WT
Mean % WT Binding [31]: 96 % of WT
Mean % WT Binding [32]: 75.1 % of WT
Mean % WT Binding [33]: 2.1 % of WT
Mean % WT Binding [34]: 88.5 % of WT
Mean % WT Binding [35]: 69.5 % of WT
B1: Refmab #4 (antibody, human IgG1, V domains shown)
VH: QVQLVQSGAEVKKPGESVKVSCKASGYTFTNYGMNWVKQAPGQGLEWMGWINTYTGEPTYADKFQGRVTMTTDTSTSTAYMEIRNLGGDDTAVYYCARWSWSDGYYVYFDYWGQGTSVTVSS
VL: DIVMTQSPDSLTVSLGERTTINCKSSQSVLDSSTNKNSLAWYQQKPGQPPKLLLSWASTRESGIPDRFSGSGSGTDFTLTIDSPQPEDSATYYCQQSAHFPITFGQGTRLEIK
notes: Tested in IgG format; human IgG1 Fc silent (PG-LALA)

Mean % WT Binding [1]: 81.6 % of WT
Mean % WT Binding [2]: 41.7 % of WT
Mean % WT Binding [3]: 122 % of WT
Mean % WT Binding [4]: 109 % of WT
Mean % WT Binding [5]: 90.8 % of WT
Mean % WT Binding [6]: 111 % of WT
Mean % WT Binding [7]: 102 % of WT
Mean % WT Binding [8]: 6 % of WT
Mean % WT Binding [9]: 83 % of WT
Mean % WT Binding [10]: 92.8 % of WT
Mean % WT Binding [11]: 96.5 % of WT
Mean % WT Binding [12]: 87.6 % of WT
Mean % WT Binding [13]: 103 % of WT
Mean % WT Binding [14]: 106 % of WT
Mean % WT Binding [15]: 106 % of WT
Mean % WT Binding [16]: 102 % of WT
Mean % WT Binding [17]: 100 % of WT
Mean % WT Binding [18]: 2.8 % of WT
Mean % WT Binding [19]: 101 % of WT
Mean % WT Binding [21]: 100 % of WT
Mean % WT Binding [22]: 90.3 % of WT
Mean % WT Binding [23]: 106 % of WT
Mean % WT Binding [24]: 98.8 % of WT
Mean % WT Binding [36]: 107 % of WT
Mean % WT Binding [25]: 67.3 % of WT
Mean % WT Binding [26]: 94.9 % of WT
Mean % WT Binding [27]: 87.2 % of WT
Mean % WT Binding [28]: 97.2 % of WT
Mean % WT Binding [29]: 96.4 % of WT
Mean % WT Binding [30]: 103 % of WT
Mean % WT Binding [31]: 109 % of WT
Mean % WT Binding [32]: 101 % of WT
Mean % WT Binding [33]: 101 % of WT
Mean % WT Binding [34]: 102 % of WT
Mean % WT Binding [35]: 106 % of WT
B2: Refmab #3 (antibody, human IgG1, V domains shown)
VH: QVQLVQSGAEVKKPGSSVKVSCKASGYTFTDYNMHWVRQAPGQGLEWIGYIYPYNGGTGYNQKFKSKATITADESTNTAYMELSSLRSEDTAVYYCARGRPAMDYWGQGTLVTVSS
VL: DIQMTQSPSSLSASVGDRVTITCRASESVDNYGISFMNWFQQKPGKAPKLLIYAASNQGSGVPSRFSGSGSGTDFTLTISSLQPDDFATYYCQQSKEVPWTFGQGTKVEIK
notes: as for B1
